For the data set, the target named is STAT1 (activated; HepG2 nuclear extract, IL-6) (UniProt P42224). The experiment in a line: competition EMSA. As to conditions: scale: fold competition efficiency vs c-myc E2F. Background: A gel shift assay detects complexes by their altered migration in electrophoresis.

The source of these data is article PMC1887683.

STAT1 (activated; HepG2 nuclear extract, IL-6), sequence (P42224 whole entry): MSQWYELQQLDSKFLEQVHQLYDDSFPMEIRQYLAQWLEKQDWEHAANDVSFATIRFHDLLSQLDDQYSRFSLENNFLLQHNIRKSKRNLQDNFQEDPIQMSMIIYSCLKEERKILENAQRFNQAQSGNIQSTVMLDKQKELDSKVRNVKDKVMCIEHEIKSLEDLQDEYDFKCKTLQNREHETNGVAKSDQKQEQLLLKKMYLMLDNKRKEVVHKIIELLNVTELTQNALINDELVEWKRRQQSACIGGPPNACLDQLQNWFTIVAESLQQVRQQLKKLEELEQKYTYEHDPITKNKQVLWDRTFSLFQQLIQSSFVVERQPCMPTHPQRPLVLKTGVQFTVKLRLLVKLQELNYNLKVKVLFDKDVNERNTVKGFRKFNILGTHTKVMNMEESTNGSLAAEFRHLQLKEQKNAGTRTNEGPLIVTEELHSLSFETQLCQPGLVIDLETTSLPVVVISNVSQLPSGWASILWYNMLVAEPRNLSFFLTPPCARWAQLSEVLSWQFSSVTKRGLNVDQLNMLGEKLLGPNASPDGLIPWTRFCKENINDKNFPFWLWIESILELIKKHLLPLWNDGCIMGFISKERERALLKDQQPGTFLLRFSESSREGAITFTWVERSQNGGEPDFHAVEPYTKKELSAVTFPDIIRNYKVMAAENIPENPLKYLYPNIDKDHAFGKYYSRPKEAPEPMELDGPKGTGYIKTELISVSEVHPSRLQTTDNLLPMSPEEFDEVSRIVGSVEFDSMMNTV

Consider APRE (alpha2-macroglobulin), for which the binding signal was found to be 5.
